Results reported in US20240425607A1, “IL-18BP ANTAGONIST ANTIBODIES AND THEIR USE IN MONOTHERAPY AND COMBINATION THERAPY IN THE TREATMENT OF CANCER” (Compugen Ltd., priority 2023, published 2024).

Legend:
[1] = tested on: MC38ova tumor-bearing mice; assay: Peripheral effects in MC38ova tumor-bearing mice: anti-mIL18BP vs engineered mIL-18; type: in vivo; details: mouse, in vivo
Experimental: Nine days pre-inoculum, vials of MC38ova^dim cells were thawed into RPMI media containing 10% FBS, 1% Glutamax, 1% Sodium pyruvate, 1% HEPES, 1% NEAA, 0.01% 2-mercaptoethanol, 1% Penicillin-Streptomycin. Following centrifugation at 300×g for 8 min, cell pellet was resuspended, counted and seeded in a T175 flask. On days −7, −5 and −2, the cells were detached and re-seeded at 6-8*10^6 cells/T175 flask. On the day of inoculum, the cells were detached, centrifuged at 300×g for 10 min, filtered through […] cell strainer and resuspended in RPMI.
Experiments were performed in C57Bl/6 (female, 6-8 wk, Envigo). Mice were anesthetized with 10% Ketamine and 10% Xylazine mixture injected intraperitoneal. Next, mice were inoculated with MC38ova cells (1.2×10^6) subcutaneously to the right flank in 50 μl/mice.
At tumor volume of −120 mm^3 (day 9), mice were randomly assigned into treatment groups. Mice were treated with Synagis mouse IgG1, k isotype control 15 mg/kg (IP), anti-mIL18 bp 837 mIgG1 15 mg/kg (IP), PBS (SC), or engineered IL-18 (SC) 0.32 mg/kg. Treatments were injected twice a week for a total of 6 treatments. […] Mice were weighed every week. Mice were bled before the 4th treatment, 4 hours after the 4th treatment, and 24 hours after the 4th treatment. Serum was analyzed for presence of IFNg, TNFα, MCP1, IL6 by Cytometric Bead Array (CBA) Mouse Inflammation Kit (BD Cat. No. 552364). Spleens were harvested from mice 24 hours after the 4th treatment and weighed. For IL15 experiments, mice were treated with a single dose of 0.5 μg, 1.5 μg of IL15, or with a mix of 0.5 μg IL15 and 2.33 μg IL15R.
Spleens were crushed into 40 μm filters and red blood cells were lysed. Single-cell suspensions were seeded into a 96-well V-bottomed plate. Cells were labeled for viability and dead cells were excluded using the Fixable Viability Stain 450 (BD Bioscience Cat #562247). To block Fcγ receptors, cells were incubated with 10 μg/mL of Purified Rat Anti-Mouse CD16/CD32 (Mouse BD Fc Block™, BD Bioscience Cat #553142) in cold 1×PBS buffer for 10 minutes. Various immune populations were stained with anti-mouse antibodies (Table 17). After washing (1% BSA, 0.1% sodium azide, in PBS), cells were acquired on FACS Fortessa cytometer (BD Bioscience). Analysis was done using FlowJo.

[2] = target: T1, IL18-BP (Mus musculus, UniProt Q9Z0M9); details: cited from earlier work
T1 sequence (Q9Z0M9 29-193): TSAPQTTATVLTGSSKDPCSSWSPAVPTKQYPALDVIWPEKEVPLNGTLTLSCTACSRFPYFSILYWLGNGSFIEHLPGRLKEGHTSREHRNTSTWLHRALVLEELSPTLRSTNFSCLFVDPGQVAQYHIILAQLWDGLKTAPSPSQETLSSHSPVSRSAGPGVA

B1: engineered mIL-18: Engineered IL-18 of US 20190070262A1, SEQ ID NO: 1920 (protein)
chain: HFGRLHCTTAVIRNINDQVLFVDKRQPVFEDMTDIDQSASEPQTRLIIYAYGDSRARGKAVTLSVKDSKMSTLSCKNKIISFEEMDPPENIDDIQSDLIFFQKRVPGHNKMEFESSLYEGHFLACQKEDDAFKLILKKKDENGDKSVMFTLTNLHQSHHHHHH
Activation state of splenic lymphocytes vs control [1]: significantly more CD69+CD4+ T-cells, CD69+CD8 T-cells, CD69+B Cells, CD107+NK cells, and CD69+CD107+ NKT cells
Serum levels of IL18, 4 hours after the 4th treatment [1]: very high serum levels of IL18
Serum levels of IL18, 24 hours after the 4th treatment [1]: returned to baseline
Spleen enlargement vs control, average [1]: 4.9 folds
Splenic CD45+ immune cells, CD3+ T cells and CD19+ B cells vs control [1]: larger number of CD45+ immune cells, as well as CD3+ T cells and CD19+B cells
Binding to IL18-BP [2]: not to bind IL18-BP
